The target of this series is T1, CasX 491 (engineered CasX).
T1 chain: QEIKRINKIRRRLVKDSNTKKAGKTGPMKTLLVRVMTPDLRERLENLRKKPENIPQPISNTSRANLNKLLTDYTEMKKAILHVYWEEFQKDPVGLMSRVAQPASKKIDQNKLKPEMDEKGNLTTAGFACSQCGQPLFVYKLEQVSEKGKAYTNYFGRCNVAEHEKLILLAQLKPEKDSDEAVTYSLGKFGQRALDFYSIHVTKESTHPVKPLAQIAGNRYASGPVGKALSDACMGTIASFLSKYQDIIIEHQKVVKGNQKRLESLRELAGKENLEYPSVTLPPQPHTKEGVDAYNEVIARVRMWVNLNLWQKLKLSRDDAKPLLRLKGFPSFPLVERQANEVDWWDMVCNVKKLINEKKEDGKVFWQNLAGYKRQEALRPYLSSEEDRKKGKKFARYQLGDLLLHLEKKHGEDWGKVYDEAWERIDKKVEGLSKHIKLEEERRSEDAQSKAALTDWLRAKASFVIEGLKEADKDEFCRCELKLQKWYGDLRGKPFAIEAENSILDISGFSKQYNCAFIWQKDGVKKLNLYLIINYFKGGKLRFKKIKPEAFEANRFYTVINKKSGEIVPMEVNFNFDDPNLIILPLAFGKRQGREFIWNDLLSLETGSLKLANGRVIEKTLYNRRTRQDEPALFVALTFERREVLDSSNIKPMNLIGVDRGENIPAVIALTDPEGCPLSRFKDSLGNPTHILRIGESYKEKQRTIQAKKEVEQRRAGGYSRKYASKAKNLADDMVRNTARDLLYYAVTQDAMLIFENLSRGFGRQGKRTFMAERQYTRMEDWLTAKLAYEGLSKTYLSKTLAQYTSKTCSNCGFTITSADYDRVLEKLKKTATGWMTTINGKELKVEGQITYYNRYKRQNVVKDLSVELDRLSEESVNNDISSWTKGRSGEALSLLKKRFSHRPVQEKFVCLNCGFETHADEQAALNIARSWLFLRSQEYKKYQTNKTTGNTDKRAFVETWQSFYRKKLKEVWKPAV
Kind of series: cell_activity; high dose; about 25% greater at low dose; PAM not stated for this spacer. As to the method:
Cells were nucleofected with the indicated doses of p59 plasmids encoding CasX 491, the scaffold, and spacer 11.30 (5' […] 3', SEQ ID NO: 17) targeting mRHO. […] Cells were nucleofected with the indicated doses of p59 plasmids encoding CasX 491, the scaffold, and spacer 12.7 (5' […]-GUUU 3', SEQ ID NO: 1146) targeting repeat elements preventing expression of the tdTomato fluorescent protein. Editing was assessed 5 days post-transfection by FACS, to quantify the fraction of tdTomato positive cells.

This note sets out measurements from patent publication US12559743, “Engineered guide scaffolds” (Scribe Therapeutics Inc.).

B1: sgRNA scaffold 235 + spacer 12.7 ; tdTomato locus target (spacer 12.7 protospacer) (ssRNA ; dsDNA)
RNA: ACUGGCGCUUCUAUCUGAUUACUCUGAGCGCCAUCACCAGCGACUAUGUCGUAGUGGGUAAAGCCGCUUACGGACUUCGGUCCGUAAGAGGCAUCAGAGCUGCAUUCUAGUUGUGGUUU
DNA 1: CTGCATTCTAGTTGTGGTTT
DNA 2: AAACCACAACTAGAATGCAG
Consider B1, for which the activity is ~35 % greater than scaffold 174.
